What was measured:
[1] = target: T1, purified CRR9 ectodomain (human, UniProt Q5R7B1 32-284 (Pongo abelii entry), limits assumed); experiment: ELISA with purified CRR9 ectodomain
T1 construct: also called CLPTM1L ectodomain
T1 sequence: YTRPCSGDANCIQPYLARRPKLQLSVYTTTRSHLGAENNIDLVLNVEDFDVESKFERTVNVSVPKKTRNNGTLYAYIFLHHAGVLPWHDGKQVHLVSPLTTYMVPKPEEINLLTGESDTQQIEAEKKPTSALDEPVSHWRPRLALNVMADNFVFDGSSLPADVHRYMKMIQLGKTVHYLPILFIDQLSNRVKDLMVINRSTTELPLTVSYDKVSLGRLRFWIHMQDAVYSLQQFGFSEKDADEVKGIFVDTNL

[2] = target: T2, human CLPTM1L/CRR9 protein (human, UniProt Q96KA5 1-538); experiment: on-cell detection of fluorescently labeled 102-5 on live Panc1 tumor cells, with or without competitors (excess 10-2 mouse ascites or excess purified CRR9 ectodomain)
T2 construct: also called Cisplatin Resistance Related Protein-9; Cleft-Lip and Palate Transmembrane Protein-Like Protein 1
T2 sequence: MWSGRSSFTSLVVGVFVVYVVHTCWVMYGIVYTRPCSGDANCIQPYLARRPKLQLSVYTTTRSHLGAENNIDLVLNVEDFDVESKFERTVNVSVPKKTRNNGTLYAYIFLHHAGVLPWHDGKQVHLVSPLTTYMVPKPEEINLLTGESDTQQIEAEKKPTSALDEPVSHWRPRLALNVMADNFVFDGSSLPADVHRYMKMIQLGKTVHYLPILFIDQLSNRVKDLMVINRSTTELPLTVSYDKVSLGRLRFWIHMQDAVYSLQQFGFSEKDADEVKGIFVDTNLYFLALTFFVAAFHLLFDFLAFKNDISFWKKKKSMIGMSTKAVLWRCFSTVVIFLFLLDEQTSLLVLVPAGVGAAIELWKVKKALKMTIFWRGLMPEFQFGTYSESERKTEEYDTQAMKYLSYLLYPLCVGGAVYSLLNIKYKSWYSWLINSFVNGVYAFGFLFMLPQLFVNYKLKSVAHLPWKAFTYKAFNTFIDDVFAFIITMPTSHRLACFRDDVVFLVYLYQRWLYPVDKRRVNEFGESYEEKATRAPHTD

[3] = target: T3, mouse CLPTM1L protein (mouse, UniProt Q8BXA5 1-539); experiment: flow cytometry on live ID8-luc mouse ovarian tumor cells (102-5 primary by the legend of FIG. 31A)
T3 construct: whole, on cells; also called the mouse protein
T3 sequence (looked up): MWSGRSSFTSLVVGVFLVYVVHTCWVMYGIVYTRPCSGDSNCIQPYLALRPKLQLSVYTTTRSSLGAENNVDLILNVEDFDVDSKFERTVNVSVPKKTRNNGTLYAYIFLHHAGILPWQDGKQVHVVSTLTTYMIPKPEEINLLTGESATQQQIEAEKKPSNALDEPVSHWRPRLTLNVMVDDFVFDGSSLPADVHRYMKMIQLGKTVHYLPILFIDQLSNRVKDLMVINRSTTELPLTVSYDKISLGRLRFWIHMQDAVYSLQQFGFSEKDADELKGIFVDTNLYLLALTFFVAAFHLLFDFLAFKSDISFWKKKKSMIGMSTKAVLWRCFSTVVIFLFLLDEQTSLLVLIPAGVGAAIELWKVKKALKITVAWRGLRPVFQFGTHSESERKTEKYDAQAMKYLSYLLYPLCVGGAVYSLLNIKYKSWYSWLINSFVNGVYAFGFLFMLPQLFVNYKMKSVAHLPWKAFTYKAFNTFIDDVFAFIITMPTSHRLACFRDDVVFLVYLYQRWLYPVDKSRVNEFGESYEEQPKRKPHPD
Description: (E) Final relative mean volumes of SL3 and SL3cis xenograft tumors 24 days post-inoculation. […] (F) Mean volumes of SL3 and SL3cis xenograft tumors relative to group mean volume after sorting from days 0 to 24 post-inoculation. *p<0.05, **p<0.005, ***p<0.0005. Error bars represent standard error of the mean.
Flow cytometry was conducted per AbCam protocol for indirect flow cytometry. Tumor cells were harvested by trypsinization and suspended in cold PBS, 10% FBS, 0.05% NaN₃. 100 μL of cell suspension was added to 12×75 mm polystyrene tubes. 10 μg/mL of primary antibody diluted in PBS 3% BSA was added and tubes were incubated at 4° C. in the dark for 45 minutes. After washing 3 times in cold PBS, cells were resuspended in rabbit anti-Human Fc (H&L)-Alexafluor 488 (Abcam) in PBS 3% BSA and incubated at 4 C in the dark for 30 minutes. After washing 3 times in cold PBS, cells were suspended in 500 μL cold PBS, 3% BSA, 0.05% NaN₃ and analyzed on an Accuri C6 flow cytometer. Cells were gated for live cells based on scatter and fluorescence was plotted on a histogram using Flowing Software 2 (Turku Bioimaging).

- Kd [1]: 1 nM
- binding result [2]: binds
- binding result [3]: binds
B1: 102-5 full-length human IgG1 anti-CLPTM1L (antibody, V domains shown)
VH: EVQLLESGGGLVQPGGSLRLSCAASGFSFSSYEMNWVRQAPGKGPEWISYISSGGGTIYYADSVRGRFTISRDNSNNTLYLQMNSLRPDDTAIYYCARDRGRKWLQLLFDSWGQGTLVTVSS
VL: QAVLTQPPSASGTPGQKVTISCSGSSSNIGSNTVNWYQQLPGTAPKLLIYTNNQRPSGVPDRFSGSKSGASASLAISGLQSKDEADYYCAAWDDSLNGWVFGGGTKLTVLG
notes: also called ESS102-5
